Experimental data from patent US7338658.

What was measured:
[1] = biological target: human CD4 on cells (human) (UniProt P01730); experiment: cell-based or functional assay
[2] = biological target: baboon CD4 on lymphocytes (baboon); experiment: flow cytometry on lymphocytes of different species
[3] = biological target: Fc receptors on human cells (γIFN-induced monocytes, γIFN-induced THP-1 cells, ADCC effector cells); experiment: cell-based or functional assay

Substance | IL-2 Production (IC50), three way MLR [1] [µg/mL] | Proliferation (IC50), three way MLR [1] [µg/mL] | fold lower reactivity than human [2] [fold] | ADCC, concentration at maximal cytotoxicity [3] [µg/mL] | ADCC, total specific lysis of SupT1 cells [3] [%] | ED50 of cell-cell adhesion (γIFN activated fresh monocytes and CD4+ SupT1 T cells) [3] [µg/mL]
CE9γ4λK (antibody) | 0.02 | 0.02 |  |  |  | 
CE9.1 monkey/human chimeric anti-CD4 monoclonal antibody (ATCC No. 69030 construct) (from UniProt P01857 1-330) |  |  | 10 | 6 | 50 | 0.02
